Experimental data as given in the DeepSol protein solubility set.

Test: soluble on expression in E. coli; label from the status in PepcDB or PDB records

| Sequence | soluble on expression in E. coli |
| --- | --- |
| SNAMSARKLFYLGPQGTFTHQAAVNAAQELARFEPQGFDLMPMDDVPQILDAAQHGDGWGIVAWENNVEGYVVPNLDALIDAKDLVGFARVGVNVEFDAYVAQGADPAEARIATAHPHGLAQCKRFIAEHRLSTQPATSNAAACRDLIPGEIAFGPAICGELYDITRIGTAIQDYQGAATDFLVLSPRAEVARLLAKPRAEANVEYESVLTLIPLVTGPGVLANLLDVFRDAGLNMTSFISRPIKGRTGTYSFIVTLDAAPWEERFRDALVEIAEHGDWAKTLAVYPRREHPNPPVTSWMLPQGGVRLDDSHLPDDWQNDETVRRELMW | soluble |
| SNAMSVVIYHNPKCSKSRETLALLENQGIAPQVIKYLETSPSVEELKRLYQQLGLNEVRAMMRCKEELYKELNLGDSQLSDDALFAAMAEHPKLIERPIVVCNGQARHGRPPEQVLEIL | soluble |
| SNGEEEFFDAVTGFDSDNSSGEFSEANQKVTGMIDLDTSKNNRIGKTGERPSQENGIQKHRTSLPAPMFSRSDFSVWTILKKCVGLELSKITMPIAFNEPLSFLQRITEYMEHVYLIHRASCQPQPLERMQSVAAFAVSAVASQWERTGKPFNPLLGETYELIREDLGFRFISEQVSHHPPISAFHSEGLNHDFLFHGSIYPKLKFWGKSVEAEPRGTITLELLKHNEAYTWTNPTCCVHNVIIGKLWIEQYGTVEILNHRTGHKCVLHFKPCGLFGKELHKVEGHIQDKNKKKLFMIYGKWTECLWGIDPVSYESFKKQERRGDHLRKAKLDEDSGKADSDVADDVPVAQETVQVIPGSKLLWRINTRPPNSAQMYNFTSFTVSLNELETGMEKTLPPTDCRLRPDIRGMENGNMDLASQEKERLEEKQREARRERAKEEAEWQTRWFYPGNNPYTGTPDWLYAGDYFERNFSDCPDIY | soluble |
| SNHFGNHCTNTSGVVCHNNYNCTIDNSIHYADTRGVVSHHRENITGHHGLVFPAATMNGYGPATSFPDMRENGHLMVNQNRPVTLRPSMSQQQPQPQPLSDEYNKVETGTAEQVYVPSRD | soluble |
| SNMQLDTLRRIVQEINSSVSLHDSLDIMVNQVADAMKVDVCSIYLLDERNQRYLLMASKGLNPESVGHVSLQLSEGLVGLVGQREEIVNLENASKHERFAYLPETGEEIYNSFLGVPVMYRRKVMGVLVVQNKQPQDFSEAAESFLVTLCAQLSGVIAHAHAVGNIDVFRKPSNGA | soluble |
| SPDEIAQVRFLIVGRTGWIANMVAELLEQRGERYAFASFRLEQREACERELDALRPQRVLNVLGSLGVRTSTGARTTGARPSAVTYWAC | soluble |
| SPFDTGPELESQIRNQYGVDVHVVPVLDTLNEAETLDRVAMQAARTIGPLVDSNAIIGVAWGATLSAVSRHLTRKMTHDSIVVQLNGAGNMQTTGITYASDIMRRFGSAYGARVEQFPVPAFFDHASTKTAMWNERSVQRILDLQARMSIAIFGVGSVDSDYPSHVYAGGYLDEHDLTMLAADDVVGDVATVFFRSDGSSDGITLNERSTGPSHEQLRQVRRRICVVSGASKINGLQGALAAGLATDLILDEASARRLVSFNGHS | soluble |
| SPRKESPLRTAVDAAALTTSDIARQLEVKVQRMNTAHEREANAISSFQQAYGIASAHLDRLLLRIPELPLPEIDDRDVDGGRVRGTFASLQRHHQALDDAISAMHQASEKVYTIPGKQATQEQDPALAQLLSVEKRRRSLGHALETLAGRGVEAGTATGLELNRVSSQVNDLVARRDALLRQRESGVQEGGLDSEELEMELQLTTSVLQRLRADLLGERQAMEATAKRLDQASRAALEGERSFSDAVRDRAWGELDNV | not soluble |
| SRFTISAAKPEDCKDIERMIMELAVYENMPDQVKISHKELERDGFGPNPFYHCLVAEVPEEHKSKDGNTTVGYVIFFYTYSTWKGRTVYMEDLYVMPEFRGNGIGKALLGAVAKEAKDQLCSRLQFSVLDWNKPSLDFYMAKGAEDLTAKEGWHFLRFHGMALDNLAQEAP | soluble |
| SRRLVHDLLPPEVCSLLNPAAIYANNEISLRDVEVYGFDYDYTLAQYADALHPEIFSTARDILIEHYKSLLMKIDAFHYVQLGTAYRGLQPVPDEEVIELYGGTQHIPLYQMSGFYGKGPSIKQFMDIFSLPEMALLSCVVDYFLGHSLEFDQAHLYKDVTDAIRDVHVKGLMYQWIEQDMEKYILRGDETFAVLSRLVAHGKQLFLITNSPFSFVDKGMRHMVGPDWRQLFDVVIVQADKPSFFTDRRKPFRKLDEKGSLQWDRITRLEKGKIYRQGNLFDFLRLTEWRGPRVLYFGDHLYSDLADLMLRHGWRTGAIIPELEREIRIINTEQYMHSLTWQQALTGLLERMQTYQDAESRQVLAAWMKERQELRCITKALFNAQFGSIFRTFHNPTYFSRRLVRFSDLYMASLSCLLNYRVDFTFYPRRTPLQHEAPLWMDQLCTGCMKTPFLGDMAHIR | not soluble |
| SRSRPAGPALLLLLLFLGAAESVRRAQPPRRYTPDWPSLDSRPLPAWFDEAKFGVFIHWGVFSVPAWGSEWFWWHWQGEGRPQYQRFMRDNYPPGFSYADFGPQFTARFFHPEEWADLFQAAGAKYVVLTTKHHEGFTNWPSPVSWNWNSKDVGPHRDLVGELGTALRKRNIRYGLYHSLLEWFHPLYLLDKKNGFKTQHFVSAKTMPELYDLVNSYKPDLIWSDGEWECPDTYWNSTNFLSWLYNDSPVKDEVVVNDRWGQNCSCHHGGYYNCEDKFKPQSLPDHKWEMCTSIDKFSWGYRRDMALSDVTEESEIISELVQTVSLGGNYLLNIGPTKDGLIVPIFQERLLAVGKWLSINGEAIYASKPWRVQWEKNTTSVWYTSKGSAVYAIFLHWPENGVLNLESPITTSTTKITMLGIQGDLKWSTDPDKGLFISLPQLPPSAVPAEFAWTIKLTGVK | soluble |
| SRVKKNVLDYNAWAEGTLKGIKQEKKAYKERHRLFFEGLSEAEKVEYATKMAHDAQIYDEPEFDPQELQSEYYRGLYAFDNRKNNVDSYK | soluble |
| SRVSVTDYKRLLDSGAFHLLLDVRPQVEVDICRLPHALHIPLKHLERRDAESLKLLKEAIWEEKQGTQEGAAVPIYVICKLGNDSQKAVKILQSLSAAQELDPLTVRDVVGGLMAWAAKIDGTFPQY | soluble |
| SSAAQPGVAFSVDNTIKRPNPAPGTRKKSSNAEVIKELNKCREENSMRLDLSKRSIHILPSSIKELTQLTELYLYSNKLQSLPAEVGCLVNLMTLALSENSLTSLPDSLDNLKKLRMLDLRHNKLREIPSVVYRLDSLTTLYLRFNRITTVEKDIKNLSKLSMLSIRENKIKQLPAEIGELCNLITLDVAHNQLEHLPKEIGNCTQITNLDLQHNELLDLPDTIGN | soluble |
| SSEQAIIVSAINHSLAQFSCHLIDGVTGSGKTEVYLQSMEEVLANNQQVLVIVPEIGLTPQTLNRFEQRFNVPIALHHSGLNDKERLATWLSAQQGSAAIVIGTRSAVFTPLHRLGLIIIDEEHDSSLKQQDSFRYHCRDMAILRARQLNIPIVLGTATP | not soluble |
| SSEWMKKGPLEWQDYIYKEVRVTASEKNEYKGWVLTTDPVSANIVLVNFLEDGSMSVTGIMGHAVQTVETMNEGDHRVREKLMHLF | soluble |
| SSFQTSLPRLPVPAVKDTVSRYLESVRPLMKEGDFQRMTALAQDFAVNLGPKLQWYLKLKSWWATNYVSDWWEEYIYLRGRGPIMVNSNYYAMEMLYITPTHIQAARAGNTIHAILLYRRTVDREELKPIRLLGSTIPLCSAQWERLFNTSRIPGEETDTIQHVKDSRHIVVYHRGRYFKVWLYHDGRLLRPRELEQQMQQILDDTSEPQPGEAKLAALTAADRVPWAKCRQTYFARGKNKQSLDAVEKAAFFVTLDESEQGYREEDPEASIDSYAKSLLHGRCFDRWFDKSITFVVFKNSKIGINAEHSWADAPIVGHLWEYVMATDVFQLGYSEDGHCKGDKNPNIPKPTRLQWDIPGECQEVIETSLSSASFLANDVDLHSFPFDTFGKGLIKKCRTSPDAFIQLALQLAHYKDMGKFCLTYEASMTRLFREGRTETVRSCTTESCNFVLAMMDPTTTAEQRFKLFKIACEKHQHLYRLAMTGAGIDRHLFCLYVVSKYLAVDSPFLKEVLSEPWRLSTSQTPQQQVELFDFEKYPDYVSCGGGFGPVADDGYGVSYIIVGENFIHFHISSKFSSPETDSHRFGKHLRQAMMDIITLFGLTANSKK | soluble |
| SSHGHSHGGGGCRCAAEREEPPEQRGLAYGLYLRIDLERLQCLNESREGSGRGVFKPWEERTDRSKFVESDADEELLFNIPFTGNVKLKGIIIMGEDDDSHPSEMRLYKNIPQMSFDDTEREPDQTFSLNRDLTGELEYATKISRFSNVYHLSIHISKNFGADTTKVFYIGLRGEWTELRRHEVTICNYEASANPADHRVHQVTPQTHFIS | soluble |
| SSKIILIPSNIPQEFPEASISNPERLRILAQVKDFIPHESTIVIDKVPTITSEQSTYINICIFNLLEACSSRVLVPGTLVNIDAFYDGESINPVDIYEVNGANFTMENIQLIDEMNNSIGKFN | soluble |
| SSNKEGSGGFRKRKHDNFPHNQRREGKDVNSSSPVMLAFKSFQQELDARHDKYERLVKLSRDITVESKRTIFLLHRITSAPDMEDILTESEIKLDGVRQKIFQVAQELSGEDMHQFHRAITTGLQEYVEAVSFQHFIKTRSLISMDEINKQLIFTTEDNGKENKTPSSDAQDKQFGTWRLRVTPVDYLLGVADLTGELMRMCINSVGNGDIDTPFEVSQFLRQVYDGFSFIGNTGPYEVSKKLYTLKQSLAKVENACYALKVRGSEIPKHMLADVFSVKTEMIDQEEGIS | soluble |
| SSNVIIMGHKFPDMDSIGAAIGILKVAQANNKDGFIVIDPNQIGSSVQRLIGEIKKYEELWSRFITPEEAMEISNDDTLLVIVDTHKPSLVMEERLVNKIEHIVVIDHHRRGEEFIRDPLLVYMEPYASSTAELVTELLEYQPKRLKINMIEATALLAGIIVDTKSFSLRTGSRTFDAASYLRAKGADTVLVQKFLKETV | not soluble |
| SSQKSLFREDWFQNGSFVSLTLYIKDVDRDESNVTFTQQTVTVNLFSARDKSIYEQTWELSHPVVAEQSLVTYFPQKVELKMKKKEEGLLWKQLTSGATLKSSDNTQSSYSSRETASLQSGRFPKQFAVEEDDDEEQDQSKDLLAFFRDIYEKSDEDTRRAMVKSFVESQGKVLSTDWKKVSSQNSRYDNE | soluble |
| SSRGSGILPDEFMFAEFKRQCLSTENWVNKYDKNDMEVWVEQAPLSASINNKGNYSKVHKIRCQINIKDVSAATMYDVLHDGQYRKTWDPTMLESFDIARLAHNADVGYYSWICPKPLKNRDVVTLRSWQASENEYVIINFSVKHPKYPPRKDLVRAVSLMTGYLIKPTGPQSCTFTYLSQADPKGSLPKWVVNKASQVLAPKVLRSAHKAGQNYPAWKAANSPDHKPWLYPIQSELAMMDPAELSIQRGDSLENVDESSTRDAQENEDSS | soluble |
| SSSSQHFNLNFTITNLPYSQDIAQPSTTKYQQTKRSIENALNQLFRNSSIKSYFSDCQVLAFRSVSNNNNHTGVDSLCNFSPLARRVDRVAIYEEFLRMTHNGTQLLNFTLDRKSVFVD | soluble |
| STEDSVKAVKRAADDDPHTETEHEDKKLKTDQEERKYPKKKVALLMAYSGKGYYGMQRNARNSQFKTIEDELVTALVGARCIPEGHAEEMKKMSFQRSARTDKGVSAVGRVVSLKVWMIENILEKINAHLPPRIRVLGCKRVTGGFNSKNNCYARTYSYMLPTVAFSPKDYNQEDTSFRLTSDTLQTVNRLFCLYKGTHNFHNFTSQKGHRDPSAMRYITHMSCGEPFIRKDVEFAVITVRGQSFMMHQIRKMIGLVIAVVKGYVDEGVMEKSWGEEKVGVSKAPGLGLVLERVHFDGYNKRFGGDGIHETLEWTEQEEAIADFKEKHIYPTIVDTELNERSMVNWMTSLCIHDFEETATGNQDRKDDDEDGSASD | soluble |
